These results are taken from a protein production outcome set (Wang et al. 2014).

This data set is described as follows: label from the status in PepcDB records.
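Also: failed if final PepcDB status was selected cloned or expressed and not failed if soluble or beyond.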

For “MSVPQGARDVEAIRAIGPDQWQTVPAGQTLNRGFSDDEFWLQVRVPAQPANRVLEVGYPLLDEVSVYWELDGRIIESHHTGDTRPFDSRPIVHRNFVFLVPSNTEPVTAWIRVQTQGSVQVPVAVTPSAEFLANEQISYGWQTMFLGIVVALALYNLFLFLIVRHQTYLWYVLTVVCSGAVQLNFNGLLFQWFWPDVPWINRYFTVPVVSAALIAAIVFTMKFLLVKSYSRWGYRILQALLAVNLLGLIYGFLGSYQVGIIWISSLAAFATPVAWLIGINVWRRGQILGGFYVLAWTPLLLGHLVLAVSKLGWIPRSPFTELAPQAGVAVEVILLSFALAYRINMERRRRQQAQEHALDIQRQANLTLESRVRERTEELEQANEQLRAISLTDGLTHVANRRRFDEKLETEWNRALRHEHELSLILLDIDHFKQVNDRFGHLVGDDCLVALASILSDEVQRSGDLVARYGGEEFAILLPTTDVAGAQQVAERMRLSVARTPVNSGEHMSPVSLTISLGVATLTPNRQSDCQELIRRADEALYAAKSDGRNRVVVWHPKAVAPTTG”, the protein production entry is recorded as “failed”.

In the case of “MSVQLSEGQTFGPRAINVTRTTLVRYAGASGDFNPIHYSDRAAREAGMDGVIAHGMWTMGAALGTVIDWVGGPERVVSQRARFTRPVQVPDTEGGTAIEVAATVRKVSEEAATLAVDVKCDGQSVLGRVEVVVRQGEQ”, the protein production entry is given as “failed”.

Take “MSVQNIVNINESNLQQTLEQSMTTPVLFYFWSERSQHCLQLTPVLESLAAQYHGQFILAKLDCDAEQMIAAQFGLRAIPTVYLFQNGQPVDGFQGPQPEEAIRALLDKVLPREEELKAQQAMQLMQEGNYIDALPLLKDAWQLSSQNSEIGLLLAEAQIALNRSEEAEAVLKTIPLQDQDTRYQGLVAQIELLKQAADTPEIQQLQQQVADNPQDAALATQLALQLHQVGRNEEALELLFSHLRKDLTAAEGQTRKTFQEILAALGTGDALASKYRRQLYALLY”: the protein production result was “not failed”.

Regarding “MSVQTPDFSQQQQFLELTQQTIQNQQFDRLVLSQYKGTEPELEKVTFRMVELQQQFKLSALYHYTTKDVTKNYDLNDAIGVIETLIANCKQANLFGSVIEAQLKKNKKKAMLNVQQLSAEKYNNNVGQQHNREKQRYIDTMAPFLQYLGITEPNGNIIPAMARKWKQINKFIEIFSHAYEQIELKDDSIKIVDFGSGKGYLTFALYDYLQQQTRTAPQMTGVELRSNLVEFCEDVAKKAGFDHLDFFEGDVRTYAPEHLDVMIALHACDVATDFAIHTGIRLNASMIMCAPCCHKELRPQLQSPKVLKPMLQFGIHAGQQAEMLTDTLRALLLKAYGYDVKVFEFVSLEHTSKNKMILATKRQTIQQPDPQILEQIQALKQMYGIQKQTLELLLQDQITIDNVGCKC”, the protein production entry is recorded as “failed”.

As to “MSVSPSPFNGAEHPIKGIALICLAVLLFASHDTLSKYLSAFYPIVMVVWARYVVHTLLMLVVFVPRSGFSAVVRTKRPGLQLLRALCLIGTSLLFTTGLRYIPLAEATAVNFLAPLLVTALSVPFLGERVSRAQWLAVLAGFVGVLIVVRPGGALFTPAILLPLGSALCFGFYQLLTRKLSGVDSPTTSNFLTGILNSLIMSALLPFFWSTPTLVHGLFMIGLGTCGMLGHMLLTQAFRHAAPAMLAPFSYGQILFAGLFGYLIFDHTPDQYALVGIAVICLSGLAVAWAQRKR”, the protein production result was “failed”.

As to “MSVTSRYRDAWEGFWNEASGDRGAVFWDAEPTLTAGRHLAHFEPHLTDAALPLIDLGCGNGTQTRYFAERFPHVVGADLSAAALAHARHADPGGLAAYRQLDAADKAEAQALHAELGDANVYVRGVLHQCEPDDRQPLADALAALLGERGRAFLVEPSQAAKTVLMGLAQGPAGPPAKLAPVLRHGLTPGAVPDEAVPEYLRAAGLTVLASGELPLVTTEYTADGTRIELPSAWVVAGTA”, the protein production result is “failed”.

On to “MSVVDPSLIERIIRDDVRAMGAYHVPDSHGLVKLDAMENPYRLPPALRSELAARLGEVALNRYPVPSSEALRAKLKEVMQVPAGMEVLLGNGSDEIISMLALAAARPGAKVMAPVPGFVMYAMSAQFAGLEFVGVPLRADFTLDRGAMLAAMAEHQPAIVYLAYPNNPTGNLFDAADMEAIVRAAQGSVCRSLVVVDEAYQPFAQESWMSRLTDFGNLLVMRTVSKLGLAGIRLGYVAGDPQWLEQLDKVRPPYNVNVLTEATALFALEHVAVLDEQAAQLRAERSRVAEGMAAHGGVTVFPSAANFLLARVPDAAQTFDRLLARKVLIKNVSKMHPLLANCLRVTVSTPEENAQFLEAFAASLQD”, for which the protein production result was “not failed”.

In the case of “MSVWLLQMKTNAIITDITKSIVKMDRILVYRHTNPDPDAIGAQFGLVALLKAAYPEKLVVAMAPVPGHLAWIDTTDEQLVTPQATDLVIAVDCANHERLAGELPTGAFVIKIDHHPNHDPYGQLNWVDETYSSCSEMIYELAQAGCFTVTAAVATKLYAGIIGDTVRFSTPETSTRTLKIASALAATDIDIATISHHEMDLTPALSKLYGYVLSEQTIEPSGLAHVVLPQRIFSDLSLEYGDEDALVPLPGNLTTVKVWLFFIETPQGQYRVHFRSKAINVNAVAKAFNGGGHPLASGAFVPDLATVGQVIEQMQAQVLAATAVDLEHHHHHH”, the protein production result was “failed”.

For “MSVYHHILLAVDFSSEDSQVVQKVRNLASQIGARLSLIHVLDNIPMPDTPYGTAIPLDTETTYDAMLDVEKQKLSQIGNTLGIDPAHRWLVWGEPREEIIRIAEQENVDLIVVGSHGRHGLALLLGSTANSVLHYAKCDVLAVRLRDD”, the protein production result is on record as “not failed”.

As to “MSWSKVKYFFFDTPEEKEAAQYGYEKEQTDMKKQQDPPEQQDVTFPKAQPKQNVVSIETAKQSSKVVLLEPRTYSEAQGIADHLKGRRAVVINLQRMSTDQAVRIVDFLSGTVYAIGGDIQKIGPKTFMCTPENVDIVGAISELFGEEEETNIKRWLEHHHHHH”, the protein production entry is reported as “not failed”.

With “MSWTVVYSAQAKQDLRNIFEYIAHSLCSPDAAKSQTRRIMAEIHSLDEMPLRYRIYDDEPWRSQGLRFFPVDYYLVFYLPVASANTVKIVRIMYGGRDVKKHLEEELLEHHHHHH”, the protein production entry is given as “failed”.

In the case of “MSYEFYGKTEQEAIKKAMRDLELKEGEFDVEILDKERVGFLFKKEMIKIRVSPHAKEVKKDDFEIKIGDEICDKILEFVKEMLIKMGYSVHLTIEPKEGGYVKISIETDSPNILIGREGKNLDSLQLLTNVYASKLIGENGAFNRVILDIGDYRERFKSRFINLAINSFHKVKRTRRSILLPSMNPFERRIVHTTLNRYSDIKTESEGDGNIKRIRVSYVRNNRYGINNSRGYQKRDIGFKK”, the protein production entry is listed as “failed”.

For the sequence “MSYLEYTVKSTPSGLRKILYMNWPLTLLLISVASAGFLMLYSVAGGSFSPWAEPQIKRFMAGLVVMTAVAMVPIWFWRNMAAVAYGGSLVLLVMVELFGAVGMGAQRWIDLGFMRLQPSELTKITLVMVLAAYYDWLPGKKTSRPLWVLVPVLIILVPTALVLKQPDLGTAILLLSAGGALMFLAGVHWAYFAAVIAAGVGLITAVFKSRGTDWQLLKDYQFRRIDTFLDPSSDPLGAGYHITQSKIALGSGGWSGRGFMQGTQSRLNFLPEKHTDFIFTTLAEEFGFIGGISLLSLYALIIAFCVATALATRDRFSSLVTLGIAVNFFLFFAVNMSMVMGLAPVVGVPLPMVSYGGSAMLVLLVAFGLVHSAHIHRPR”, the protein production result is given as “failed”.

Consider “MSYLLRSDPVSRIHPEPQSLTSFDHFDLLPDSLLLLIFDKVADVKDLGRCCIVSRRFHSLVPFVENVLVRVDCVISDDDSSSSDENHRFSLNTASISDAGGAGGSFSALFRLVFAPIFKPFQMLGQILGPKRSSSSFDASFSAINDEIGVTHHSPTQVLKNFGEIRFLKIELPTGELGIEDGILLKWRADFGSTLDNCMILGASSVIQSNSVKNHENSVDEDNGNIPESFYTNGGLKLRVVWTISSLIAASARHYLLQPIINEHKSLDRLVLSDADGQGVLCMNREQLEELRVTPLSASSASKRTLVPALNMRLWYAPELDLPDGTVLKGATLVAIRPSESKKEVCDASWLSDAFEEPFGTVAKMLIKRRTYCLEMNSF”, for which the protein production result is listed as “failed”.

Take “MSYNVAILMSTYNGMDYLREQIESIRSQTYKQWNLYIRDDGSSDNTIDLIKTFVHQDTRIHFINADKQVNRGVKRSFLNLLSSVKADFYMFCDQDDYWLPNKVKLTLDAMISDYHNKPRLVFTNMNLVDSNLKVLDKASLSAVNISYWTSKDQLMFDNIVTGCTVMINNQLKQYVFPISAKKIVMHDWYIAQLASQLGDIQYVTDPTILYRQHESNQVGVNKSLFGKVKKLARFNDFQTGVILQISQGRLTQKKSQVVFSKTTQAFLNWNFTCPLILKVLPIIQNNFKKHTWPGTIALNLALLRRKKS”: the protein production entry is “failed”.

Turning to “MSYRGLPAMTRNDLTIYDDVAAQWWSDDIRWVRTLKAMVPGRLAFFDRKIDWRDKRVLDLGCAGGFMAEALCERGAIVTGIDPAAQAIDAAREHAELDGHDIRYDVGKGETLPYADDSFDAVVCVDVLEHVEDLDLVLSEVARTLVPGGMFFFDTINRNPLARFATITMAEDILRLLPKGTHDPDMFIKPGELHAALGRAGFVPGR”, the protein production result was “failed”.

Turning to “MSYSPSLKEIIAILQKYTSKNYQSNCKTRPDGKLELSLNGVFEEIVKTPGKTRYVTHKQLDQKLKDFKQDLMVELHDTFATKTDLKESEARINQKLEALIQIVMVQGEQIKVHGEQINKLTQAVEKQGEKIEAQGQQIQKVNETLNFVVESLGSIHKRLDSMEGRLDSMENRLDKLESKLEHHHHHH”, the protein production result is “not failed”.

In the case of “MSYVLLLLGFALLIKGADFFVDGSSSIARLLNVSPLLIGLTIVAFGTSSPEATASIIAALNGNPDVALGNVIGSNMFNITLVVGLTALLSPLIVTNATLRKEIPFTLLASIALYIFINDQMIEGAVESTLSRSEGLILLLIFCVFLYYIFEVARTSPREQKIVQDFAIKPTWRKNIFLSILGLAMIIGGGELVIRHSTAIAFSHGMSETLVGLTIVAIGTSLPELVTSLTAALKKESEIALGNIVGSSIFNIFFVLGTAATITPMHVDSRVVVDLLLLIFLTLLLLVFSRTRYTVGKYEGLILASFYIGYMVYIIWRN”, the protein production result is given as “failed”.

For the sequence “MTAAGFNSILCLRQLVRLNRRQYSAPAKSVLSGSQTNDQATPPPTSKSADKMRGWQLHNYGDIDELQLSEMLKIPQIRCSNECLVRIRATAVNPIDLAMLRGYGATVLNKMRCQPGDGIEFPLILGREFCGELVQTGMGVSLPLGSRVWGVVPLQATIGSHAEYVAVPSYCLAPAPKELDDYEAASVLYAGLTAWSGLYITGGLGGPCGATTASGGGAHKRVLVLGGSGGVGTLAIQILKSQKVQVLATCSENAIEMVRNLGADLVVDYNNPQAMEELCKYAPYDIVLDCAGQGGQKAAESKYDFRQYITFSSPLLANIDKQGLGVGALKNVFDLFQTNVRSVTQRGGLVKWGFFSPAPQGIQFLQKLVEQRKLMPLIDSSYGFSELPKAFEKMKSGHLRGKIVVKLREETGD”, the protein production entry is “failed”.

Regarding “MTAAILVTGATGKLGQRVVNRLLQKQAKVRVLTRRREDALKLWGDSVDIAEGNFSDPASLKGASRDVDRVFLLSPIGKTLAADQNAVVDAALSAGVSQIVKLSGSDWTLKNAARSISGTAHAAVEKHLAETGIAHTVLRPNAWMQVALEPVVAALRNGEDVPARFGNAAVSFIDADDIADVAVEALSASAPPAGTLVLTGHEALAALGIARIAARILHRPVGVSHQSASTFPAHIGGFEQKAIAEFGQLIGEGLAASTTDIVEQIIGHPPRSVENYLRARLAVAQQGDHSEGEKTWR”, the protein production result is “failed”.

Turning to “MTAALSSNFLLVAFFLYLAATIFYAVSIMGKKWRNKEGEMKGNRWGTFGYYSAIIALLFALGYFITRWMVAGFAPVSNMFEYVTFFGICIGLAFVIINAIYRSNILGLFTMPTVMLMIAYASVFPSEVAPLIPALQSNWLALHVTTVALGQGILAVSFASGLVYLIRTIDYSIQSWKTFWLEFILYSVITVVGFILITYTFQAMNYEAKFNYVNENDVEATMEYHLPPIVGPHEGQLISETGNQPLVNMPAWIKSDQLNTVIWSFLVGLVLYLLLYLVFRKPVGAILQPIVKRVSPQLVDEISYRAIAIGFPVFTLGGLIFAMIWAQIAWTRFWGWDPKEVWALITFLFYAAYLHLRLSKGWHGERSAWLCVIGFAIIMFNLVFVNLVIAGLHSYAGGM”, the protein production entry is listed as “failed”.
